Laboratory results taken from patent US20260265379A1 (IMCHECK THERAPEUTICS, published 2026).
Each block holds one binder with its values, some of them ahead of it.

Legend:
[1] = target: T1, BTN3A1 at the surface of HEK-BTN3A1 cells (human, UniProt O00481 30-513); assay: flow cytometry, HEK-BTN3A1 cells
T1 construct: HEK 293T BTN2A/BTN3A KO cells transduced with a BTN3A1 expressing vector

recombinant human BTN3A1 = target: T2, recombinant human BTN3A1 (human, UniProt O00481 30-254); assay: SPR
T2 construct: Soluble form of the antigen used in SPR; also called rhBTN3A1; recombinant BTN3A1 protein
Method: SPR measures the interactions between two or more biomolecules. In capture kinetics analysis, an antibody is immobilized onto a gold-plated prism. The immobilized antibody is referred to as the ligand. An injection of antigen, referred to as the analyte, is carried out, often as a concentration series. The captured analytes are removed from the sensor chip surface using a regenerating agent, for example a low pH or high ionic strength solution. If investigating binding to several analytes, the antibodies are recaptured from solution before each analyte titration series. The instrument records the changes in refractive indexes (due to the accumulation or depletion of mass) in time and plots the results as sensorgrams.
Affinity measurements with respect to BTN3A, PD-1 and PD-L1 were performed by SPR technology, for instance in a Carterra LSA Platform instrument using a soluble form of the antigen as the analyte and the antibody as the ligand. Binding was also assessed through in cellulo binding assays, on cell lines (e.g. HEK293T cells) genetically modified to express the targets of interest or genetically modified to extinct target expression.
The 69 produced bsAbs and control mAbs were also evaluated for their binding affinity to recombinant proteins by SPR assays. The equilibrium dissociation constant (KD) was then calculated for constructs showing detectable binding.

[2] = target: T3, PD-1 at the surface of Jurkat-PD-1 cells (human, UniProt Q15116 25-288); assay: flow cytometry, Jurkat-PD-1 cells
T3 construct: whole, on cells

[3] = target: T3, PD-1 at the surface of Jurkat-PD-1 cells; assay: cell-based or functional assay
[4] = target: T4, PD-L1 at the surface of transduced cells (UniProt Q9NZQ7 19-290, limits assumed); assay: cell-based or functional assay
[5] = target: T4, PD-L1 at the surface of transduced cells; assay: flow cytometry, CHO-PD-L1 cells

T3 sequence (Q15116 25-288): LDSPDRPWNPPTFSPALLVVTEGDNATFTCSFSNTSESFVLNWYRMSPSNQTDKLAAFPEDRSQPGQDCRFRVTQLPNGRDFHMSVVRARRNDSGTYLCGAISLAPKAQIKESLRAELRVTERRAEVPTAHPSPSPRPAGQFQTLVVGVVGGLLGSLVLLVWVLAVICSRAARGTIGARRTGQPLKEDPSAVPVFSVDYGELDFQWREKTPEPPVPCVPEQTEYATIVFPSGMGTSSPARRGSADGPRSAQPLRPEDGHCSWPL
T2 sequence (O00481 30-254 limits assumed): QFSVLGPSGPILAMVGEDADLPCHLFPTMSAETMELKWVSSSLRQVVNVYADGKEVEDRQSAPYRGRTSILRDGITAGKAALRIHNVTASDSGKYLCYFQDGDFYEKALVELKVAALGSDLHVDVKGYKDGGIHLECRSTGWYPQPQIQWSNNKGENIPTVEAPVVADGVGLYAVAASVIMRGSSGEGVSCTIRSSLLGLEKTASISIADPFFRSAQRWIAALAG
T4 sequence (Q9NZQ7 19-290 limits assumed): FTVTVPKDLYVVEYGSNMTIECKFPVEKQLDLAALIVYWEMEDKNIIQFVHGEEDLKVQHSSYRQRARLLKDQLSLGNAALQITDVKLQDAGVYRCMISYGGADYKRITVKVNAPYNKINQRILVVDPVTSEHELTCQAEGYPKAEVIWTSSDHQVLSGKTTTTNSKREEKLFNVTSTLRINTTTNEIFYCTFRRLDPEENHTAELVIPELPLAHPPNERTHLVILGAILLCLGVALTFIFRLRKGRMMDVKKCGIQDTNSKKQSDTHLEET
T1 sequence (O00481 30-513 limits assumed): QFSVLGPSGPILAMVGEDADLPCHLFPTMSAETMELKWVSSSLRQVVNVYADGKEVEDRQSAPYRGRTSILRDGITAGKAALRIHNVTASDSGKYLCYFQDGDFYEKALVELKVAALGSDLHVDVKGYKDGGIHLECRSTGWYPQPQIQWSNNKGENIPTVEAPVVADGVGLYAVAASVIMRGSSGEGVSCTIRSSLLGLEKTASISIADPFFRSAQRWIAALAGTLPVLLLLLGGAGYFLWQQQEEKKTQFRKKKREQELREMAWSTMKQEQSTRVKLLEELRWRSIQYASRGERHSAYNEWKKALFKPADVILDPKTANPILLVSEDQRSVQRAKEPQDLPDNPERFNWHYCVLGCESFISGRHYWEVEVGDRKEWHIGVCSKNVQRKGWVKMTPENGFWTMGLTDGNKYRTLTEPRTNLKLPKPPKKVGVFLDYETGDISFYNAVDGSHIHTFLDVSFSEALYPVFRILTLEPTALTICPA

B2: bsAb026 (bispecific antibody)
heavy: QVQLVQSGAEVKKPGASVKLSCKASGYIFTRYYMYWVKQRPGQGLEWIGEINPNNGGTKFNEKFKNRATLTVDKSISTAYMELSRLRSDDTAVYYCSREDDYDGTPFAMDYWGQGTLVTVSSASTKGPSVFPLAPSSKSTSGGTAALGCLVKDYFPEPVTVSWNSGALTSGVHTFPAVLQSSGLYSLSSVVTVPSSSLGTQTYICNVNHKPSNTKVDKRVEPKSCDKTHTCPPCPAPEFEGGPSVFLFPPKPKDTLMISRTPEVTCVVVDVSHEDPEVKFNWYVDGVEVHNAKTKPREEQYNSTYRVVSVLTVLHQDWLNGKEYKCKVSNKALPASIEKTISKAKGQPREPQVYTLPPSREEMTKNQVSLTCLVKGFYPSDIAVEWESNGQPENNYKTTPPVLDSDGSFFLYSKLTVDKSRWQQGNVFSCSVMHEALHNHYTQKSLSLSPGGGGGSGGGGSGGGGSGGGGSQVQLVQSGVEVKKPGASVKVSCKASGYTFTNYYMYWVRQAPGQGLEWMGGINPSNGGTNFNEKFKNRVTLTTDSSTTTAYMELKSLQFDDTAVYYCARRDYRFDMGFDYWGQGTTVTVSSASTKGPSVFPLAPSSKSTSGGTAALGCLVKDYFPEPVTVSWNSGALTSGVHTFPAVLQSSGLYSLSSVVTVPSSSLGTQTYICNVNHKPSNTKVDKKVEPKSCDKTHTGGSSGSGSGSTGTSSSGTGTSAGTTGTSASTSGSGSGGGGGSGGGGSAGGEIVLTQSPATLSLSPGERATLSCRASKGVSTSGYSYLHWYQQKPGQAPRLLIYLASYLESGVPARFSGSGSGTDFTLTISSLEPEDFAVYYCQHSRDLPLTFGGGTKVEIKRTVAAPSVFIFPPSDEQLKSGTASVVCLLNNFYPREAKVQWKVDNALQSGNSQESVTEQDSKDSTYSLSSTLTLSKADYEKHKVYACEVTHQGLSSPVTKSFNRGEC
light: not shown
notes: IgG anti-BTN3A, scFab anti-PD-1; formula printed IgG(H)-VH-CH1-linker1-VL-CL-linker2-
MFI at 10 nM [1]: 410000 MFI | MFI at 100 nM [1]: 1.03e+06 MFI | Kd (recombinant human BTN3A1): 0.068 nM | MFI at 10 nM [2]: 73300 MFI | MFI at 100 nM [2]: 257000 MFI

B3: bsAb014 (bispecific antibody)
heavy: QVQLVQSGAEVKKPGASVKLSCKASGYIFTRYYMYWVKQRPGQGLEWIGEINPNNGGTKFNEKFKNRATLTVDKSISTAYMELSRLRSDDTAVYYCSREDDYDGTPFAMDYWGQGTLVTVSSASTKGPSVFPLAPSSKSTSGGTAALGCLVKDYFPEPVTVSWNSGALTSGVHTFPAVLQSSGLYSLSSVVTVPSSSLGTQTYICNVNHKPSNTKVDKRVEPKSCDKTHTCPPCPAPEFEGGPSVFLFPPKPKDTLMISRTPEVTCVVVDVSHEDPEVKFNWYVDGVEVHNAKTKPREEQYNSTYRVVSVLTVLHQDWLNGKEYKCKVSNKALPASIEKTISKAKGQPREPQVYTLPPSREEMTKNQVSLTCLVKGFYPSDIAVEWESNGQPENNYKTTPPVLDSDGSFFLYSKLTVDKSRWQQGNVFSCSVMHEALHNHYTQKSLSLSPG
light: not shown
notes: IgG anti-BTN3A, scFv anti-PD-1
MFI at 10 nM [1]: 464000 MFI | MFI at 100 nM [1]: 812000 MFI | Kd (recombinant human BTN3A1): 0.083 nM | Jurkat-PD-1 activation at 10 nM [3]: 5.9 fold-change to medium | Jurkat-PD-1 activation at 100 nM [3]: 1.9 fold-change to medium | MFI at 10 nM [2]: 165000 MFI | MFI at 100 nM [2]: 290000 MFI

B6: bsAb042 (bispecific antibody)
heavy 1: QVQLVQSGVEVKKPGASVKVSCKASGYTFTNYYMYWVRQAPGQGLEWMGGINPSNGGTNFNEKFKNRVTLTTDSSTTTAYMELKSLQFDDTAVYYCARRDYRFDMGFDYWGQGTTVTVSS
heavy 2: QVQLVQSGAEVKKPGASVKLSCKASGYIFTRYYMYWVKQRPGQGLEWIGEINPNNGGTKFNEKFKNRATLTVDKSISTAYMELSRLRSDDTAVYYCSREDDYDGTPFAMDYWGQGTLVTVSSGGGGSGGGGSGGGGSGGGGSDIQMTQSPSSLSASVGDRVTITCHASQNINVWLSWYQQKPGKAPKLLIYKASNLHTGVPSRFTGSGSGTDFTFTISSLQPEDIATYYCQQGQTYPYTFGQGTKLEIKGGGGSGGGGSGGGGSGGGGS
light: EIVLTQSPATLSLSPGERATLSCRASKGVSTSGYSYLHWYQQKPGQAPRLLIYLASYLESGVPARFSGSGSGTDFTLTISSLEPEDFAVYYCQHSRDLPLTFGGGTKVEIKRTVAAPSVFIFPPSDEQLKSGTASVVCLLNNFYPREAKVQWKVDNALQSGNSQESVTEQDSKDSTYSLSSTLTLSKADYEKHKVYACEVTHQGLSSPVTKSFNRGECGGGGSGGGGSGGGGSGGGGSDIQMTQSPSSLSASVGDRVTITCHASQNINVWLSWYQQKPGKAPKLLIYKASNLHTGVPSRFTGSGSGTDFTFTISSLQPEDIATYYCQQGQTYPYTFGQGTKLEIKGGGGSGGGGSGGGGSGGGGSQVQLVQSGAEVKKPGASVKLSCKASGYIFTRYYMYWVKQRPGQGLEWIGEINPNNGGTKFNEKFKNRATLTVDKSISTAYMELSRLRSDDTAVYYCSREDDYDGTPFAMDYWGQGTLVTVSS
notes: one Fab arm anti-PD-1, two scFv anti-BTN3A; not shown: IgG1 CH1-hinge-CH2-CH3; CH2-CH3 (Fc)
MFI at 10 nM [1]: 824000 MFI | MFI at 100 nM [1]: 1.24e+06 MFI | Kd (recombinant human BTN3A1): 0.093 nM | MFI at 10 nM [2]: 212000 MFI | MFI at 100 nM [2]: 362000 MFI

B7: bsAb001 (bispecific antibody, human IgG1, kappa)
heavy: QVQLVQSGAEVKKPGASVKLSCKASGYIFTRYYMYWVKQRPGQGLEWIGEINPNNGGTKFNEKFKNRATLTVDKSISTAYMELSRLRSDDTAVYYCSREDDYDGTPFAMDYWGQGTLVTVSSASTKGPSVFPLAPSSKSTSGGTAALGCLVKDYFPEPVTVSWNSGALTSGVHTFPAVLQSSGLYSLSSVVTVPSSSLGTQTYICNVNHKPSNTKVDKRVEPKSCDKTHTCPPCPAPEFEGGPSVFLFPPKPKDTLMISRTPEVTCVVVDVSHEDPEVKFNWYVDGVEVHNAKTKPREEQYNSTYRVVSVLTVLHQDWLNGKEYKCKVSNKALPASIEKTISKAKGQPREPQVYTLPPSREEMTKNQVSLTCLVKGFYPSDIAVEWESNGQPENNYKTTPPVLDSDGSFFLYSKLTVDKSRWQQGNVFSCSVMHEALHNHYTQKSLSLSPGGGGGSGGGGSGGGGSGGGGSQVQLVQSGVEVKKPGASVKVSCKASGYTFTNYYMYWVRQAPGQGLEWMGGINPSNGGTNFNEKFKNRVTLTTDSSTTTAYMELKSLQFDDTAVYYCARRDYRFDMGFDYWGQGTTVTVSSGGGGSGGGGSGGGGSGGGGSEIVLTQSPATLSLSPGERATLSCRASKGVSTSGYSYLHWYQQKPGQAPRLLIYLASYLESGVPARFSGSGSGTDFTLTISSLEPEDFAVYYCQHSRDLPLTFGGGTKVEIK
light: not shown
notes: IgG anti-BTN3A, scFv anti-PD-1 (VH-VL) at heavy chain C-terminus
MFI at 10 nM [1]: 507000 MFI | MFI at 100 nM [1]: 710000 MFI | Jurkat-PD-1 activation at 10 nM [3]: 8 fold-change to medium | MFI at 10 nM [2]: 179000 MFI | MFI at 100 nM [2]: 396000 MFI

More lines, in order of falling Kd (recombinant human BTN3A1), values ahead:

MFI at 10 nM [1]: 502000 MFI | MFI at 100 nM [1]: 1.08e+06 MFI | Kd (recombinant human BTN3A1): 0.212 nM | MFI at 100 nM [2]: 347000 MFI
B4: bsAb018 (bispecific antibody)
heavy: EIVLTQSPATLSLSPGERATLSCRASKGVSTSGYSYLHWYQQKPGQAPRLLIYLASYLESGVPARFSGSGSGTDFTLTISSLEPEDFAVYYCQHSRDLPLTFGGGTKVEIKGGGGSGGGGSGGGGSGGGGSQVQLVQSGVEVKKPGASVKVSCKASGYTFTNYYMYWVRQAPGQGLEWMGGINPSNGGTNFNEKFKNRVTLTTDSSTTTAYMELKSLQFDDTAVYYCARRDYRFDMGFDYWGQGTTVTVSSGGGGSGGGGSGGGGSGGGGSQVQLVQSGAEVKKPGASVKLSCKASGYIFTRYYMYWVKQRPGQGLEWIGEINPNNGGTKFNEKFKNRATLTVDKSISTAYMELSRLRSDDTAVYYCSREDDYDGTPFAMDYWGQGTLVTVSSASTKGPSVFPLAPSSKSTSGGTAALGCLVKDYFPEPVTVSWNSGALTSGVHTFPAVLQSSGLYSLSSVVTVPSSSLGTQTYICNVNHKPSNTKVDKRVEPKSCDKTHTCPPCPAPEFEGGPSVFLFPPKPKDTLMISRTPEVTCVVVDVSHEDPEVKFNWYVDGVEVHNAKTKPREEQYNSTYRVVSVLTVLHQDWLNGKEYKCKVSNKALPASIEKTISKAKGQPREPQVYTLPPSREEMTKNQVSLTCLVKGFYPSDIAVEWESNGQPENNYKTTPPVLDSDGSFFLYSKLTVDKSRWQQGNVFSCSVMHEALHNHYTQKSLSLSPG
light: not shown
notes: as for B3

MFI at 10 nM [1]: 1.01e+06 MFI | MFI at 100 nM [1]: 1.82e+06 MFI | Kd (recombinant human BTN3A1): 0.073 nM
B1: ICT01 (antibody, V domains shown)
VH: QVQLVQSGAEVKKPGASVKLSCKASGYIFTRYYMYWVKQRPGQGLEWIGEINPNNGGTKFNEKFKNRATLTVDKSISTAYMELSRLRSDDTAVYYCSREDDYDGTPFAMDYWGQGTLVTVSS
VL: DIQMTQSPSSLSASVGDRVTITCHASQNINVWLSWYQQKPGKAPKLLIYKASNLHTGVPSRFTGSGSGTDFTFTISSLQPEDIATYYCQQGQTYPYTFGQGTKLEIK
notes: also called anti-BTN3A mAb; mAb 7.2

MFI at 10 nM [1]: 500000 MFI | MFI at 100 nM [1]: 950000 MFI | Kd (recombinant human BTN3A1): 0.073 nM | Jurkat-PD-1 activation at 10 nM [4]: 8.5 fold-change to medium | Jurkat-PD-1 activation at 100 nM [4]: 6.9 fold-change to medium | MFI at 10 nM [5]: 722000 MFI
B5: bsAb003 (bispecific antibody, human IgG1, kappa)
heavy: QVQLVQSGAEVKKPGASVKLSCKASGYIFTRYYMYWVKQRPGQGLEWIGEINPNNGGTKFNEKFKNRATLTVDKSISTAYMELSRLRSDDTAVYYCSREDDYDGTPFAMDYWGQGTLVTVSSASTKGPSVFPLAPSSKSTSGGTAALGCLVKDYFPEPVTVSWNSGALTSGVHTFPAVLQSSGLYSLSSVVTVPSSSLGTQTYICNVNHKPSNTKVDKRVEPKSCDKTHTCPPCPAPEFEGGPSVFLFPPKPKDTLMISRTPEVTCVVVDVSHEDPEVKFNWYVDGVEVHNAKTKPREEQYNSTYRVVSVLTVLHQDWLNGKEYKCKVSNKALPASIEKTISKAKGQPREPQVYTLPPSREEMTKNQVSLTCLVKGFYPSDIAVEWESNGQPENNYKTTPPVLDSDGSFFLYSKLTVDKSRWQQGNVFSCSVMHEALHNHYTQKSLSLSPGGGGGSGGGGSGGGGSGGGGSEVQLVESGGGLVQPGGSLRLSCAASGFTFSRYWMSWVRQAPGKGLEWVANIKQDGSEKYYVDSVKGRFTISRDNAKNSLYLQMNSLRAEDTAVYYCAREGGWFGELAFDYWGQGTLVTVSSGGGGSGGGGSGGGGSGGGGSEIVLTQSPGTLSLSPGERATLSCRASQRVSSSYLAWYQQKPGQAPRLLIYDASSRATGIPDRFSGSGSGTDFTLTISRLEPEDFAVYYCQQYGSLPWTFGQGTKVEIK
light: not shown
notes: IgG anti-BTN3A, scFv anti-PD-L1 (VH-VL) at heavy chain C-terminus
